We go through five molecules from patent US20250154277A1 (CONCEPT TO MEDICINE BIOTECH, published 2025).

Test [1] addresses T1, human 5T4-His protein (human, UniProt Q13641 32-355).
T1 construct: also called recombinant 5T4 protein (human 5T4-his tag); human 5T4 protein; not shown: His tag
T1 sequence (looked up): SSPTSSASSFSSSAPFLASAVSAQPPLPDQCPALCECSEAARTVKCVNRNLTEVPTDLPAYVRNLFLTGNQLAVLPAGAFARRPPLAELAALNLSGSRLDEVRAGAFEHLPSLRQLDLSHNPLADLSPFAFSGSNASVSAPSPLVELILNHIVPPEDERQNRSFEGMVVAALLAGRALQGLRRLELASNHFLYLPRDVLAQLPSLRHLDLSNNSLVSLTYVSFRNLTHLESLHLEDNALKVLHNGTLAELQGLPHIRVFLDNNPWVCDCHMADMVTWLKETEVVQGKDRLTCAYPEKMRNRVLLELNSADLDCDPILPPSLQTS
The test can be described thus: ELISA, coated human 5T4-His. Background: In an ELISA, binding on a coated surface is turned into a signal by an enzyme label.

The target in test [2] is T1, human 5T4-His protein. Put plainly: ELISA, coated human 5T4-His. The source holds these as a separate data set.
Test [3] concerns the target T2, human 5T4 expressed on cells (human, UniProt Q13641 32-420).
T2 construct: whole, on cells; also called CHOK1-hu5T4; CHO-K1-expressing human 5T4
T2 sequence (looked up): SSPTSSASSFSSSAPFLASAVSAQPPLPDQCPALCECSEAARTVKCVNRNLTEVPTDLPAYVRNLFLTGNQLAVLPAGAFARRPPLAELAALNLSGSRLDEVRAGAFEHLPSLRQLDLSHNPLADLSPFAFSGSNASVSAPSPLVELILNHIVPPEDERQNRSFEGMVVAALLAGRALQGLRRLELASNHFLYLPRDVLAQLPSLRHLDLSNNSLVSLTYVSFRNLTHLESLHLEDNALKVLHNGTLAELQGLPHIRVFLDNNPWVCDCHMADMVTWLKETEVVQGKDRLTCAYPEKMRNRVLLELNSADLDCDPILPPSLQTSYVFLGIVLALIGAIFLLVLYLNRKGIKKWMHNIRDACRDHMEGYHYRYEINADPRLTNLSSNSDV
The test can be described thus: flow cytometry, CHOK1-hu5T4 cells. For orientation: In flow cytometry, cells or beads pass a laser one at a time.

Test [4] addresses T2, human 5T4 expressed on cells. The test can be described thus: flow cytometry, CHOK1-hu5T4 cells. This is another data set of the same source.
Test [5] shares this target. The test can be described thus: flow cytometry, HEK293-hu5T4 cells.
The target of test [6] is T1, human 5T4-His protein. Put plainly: competitive ELISA, coated human 5T4, vs naptumomab-biotin.
Test [7] has as its target T1, human 5T4-His protein. Described as above. The source holds these as a separate data set.
Test [8] has as its target T1, human 5T4-His protein. Described as above. This is another data set of the same source.
Test [9] has as its target T1, human 5T4-His protein. The description is as above. This is another data set of the same source.
Test [10] concerns the target T1, human 5T4-His protein. The test can be described thus: ELISA, coated antigen. The method, then:
(§1) ELISA testing was carried out to evaluate the binding of chimeric antibodies to human and cynomolgus, respectively. The antibody portion of naptumomab (NeoTX) that targets 5T4 (abbreviated as naptumomab in the present disclosure), was generated and used as a benchmark.
(§2) Briefly, microtiter plates were coated with human and cynomolgus 5T4 proteins at […] in PBS, 100 μl/well at 4° C. overnight, then blocked with 150 μl/well of 1% BSA. Serial dilutions of chimeric antibodies were added to each well and incubated for 1 hour at RT. The plates were washed with PBS/Tween and then incubate with mouse-anti-human IgG Fc antibody conjugated with Horse Radish Peroxidase (HRP) for 30 mins at RT. After washing, the plates were developed with TMB substrate and analyzed by spectrophotometer at OD 450 nm. All the 5T4 chimeric mAbs bound to human and cynomolgus 5T4 (FIG. 1-2 and Table 3).

For a further test, the target named is T3, cynomolgus 5T4 protein (cynomolgus monkey, UniProt Q4R8Y9 35-355, limits assumed).
T3 construct: Coated protein in ELISA; the screening step names a cyno 5T4-His protein; also called cyno 5T4; recombinant cyno 5T4-His protein
T3 sequence (looked up): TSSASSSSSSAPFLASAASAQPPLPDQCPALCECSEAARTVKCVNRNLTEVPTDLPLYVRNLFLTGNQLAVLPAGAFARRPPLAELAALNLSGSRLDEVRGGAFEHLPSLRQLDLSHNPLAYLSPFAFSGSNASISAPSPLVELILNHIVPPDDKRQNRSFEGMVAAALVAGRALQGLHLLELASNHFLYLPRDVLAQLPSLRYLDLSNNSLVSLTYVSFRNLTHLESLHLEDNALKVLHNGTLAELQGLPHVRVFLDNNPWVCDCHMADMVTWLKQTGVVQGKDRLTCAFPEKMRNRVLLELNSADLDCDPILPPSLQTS
The test can be described thus: ELISA, coated antigen. The method, then: as §1, §2

The target in test [11] is T1, human 5T4-His protein. The test can be described thus: SPR Biacore, Protein A capture. On the procedure:
The binding of the chimeric mAbs from these clones against recombinant 5T4 protein (human 5T4-his tag) was tested with Biacore using a capture method. The mAbs were captured using Protein A chip. A serial dilution of human 5T4-his tag protein was injected over captured antibody for 2-3 mins at a flow rate of 30 μl/min. The antigen was allowed to dissociate for 360-1000 s. All the experiments were carried out on a Biacore T200. Data analysis was carried out using Biacore T200 evaluation software.
On the technique in general: Surface plasmon resonance follows binding to a sensor surface in real time, without labels.

The target of test [12] is T1, human 5T4-His protein. Put plainly: competitive ELISA, coated human 5T4, vs naptumomab-biotin. The source holds these as a separate data set.
The target in test [13] is T1, human 5T4-His protein. The test can be described thus: ELISA, coated 5T4-His.
Test [14] has as its target T1, human 5T4-His protein. Put plainly: SPR Biacore, Protein A capture. On the procedure:
The binding of the 14G12 humanized antibodies to recombinant 5T4 protein (human 5T4-his tag) was tested with Biacore using a capture method. The mAbs were captured using Protein A chip. Serial dilution of human 5T4-his tag protein was injected over captured antibody for 120 s-180 s at a flow rate of 30 μl/min. The antigen was allowed to dissociate for 360 s-1000 s. All the experiments were carried out on a Biacore T200. Data analysis was carried out using the Biacore T200 evaluation software.
The source holds these as a separate data set.

Test [15] deals with T1, human 5T4-His protein. The test can be described thus: SPR Biacore, Protein A capture. On the procedure:
The binding affinity of tested antibodies against recombinant 5T4 protein (human 5T4-his tag) was tested with Biacore using a capture method. The antibodies were captured using Protein A chip. A serial dilution of human 5T4-his tag protein was injected over captured antibody for 3 mins at a flow rate of 30 μl/min. The antigen was allowed to dissociate for 300 s. All the experiments were carried out on a Biacore T200. Data analysis was carried out using Biacore T200 evaluation software.
This is another data set of the same source.

Test [16] has as its target T1, human 5T4-His protein. Put plainly: ELISA, coated human 5T4-His. The method, then: (§3) Briefly, microtiter plates were coated with human 5T4-His protein at 2 μg/ml in PBS, 30 μl/well at 4° C. overnight, then blocked with 5% PBS/Milk. Serial dilutions of antibodies were added to each well and incubated for 1 hour at room temperature. The plates were washed with PBS/Tween and then incubated with Goat Anti-Human IgG-HRP for 50 mins at room temperature. After washing, the plates were developed with TMB substrate and analyzed by spectrophotometer at OD 450 nm.
The source holds these as a separate data set.

The target in test [17] is T1, human 5T4-His protein. The test can be described thus: ELISA, coated human 5T4-His. The method, then: as §3
The source holds these as a separate data set.

Test [18] concerns the target T2, human 5T4 expressed on cells. Put plainly: flow cytometry, MCF-7 cells. The method, then: (§4) To evaluate the binding property of affinity maturated antibodies to surface 5T4, tested antibodies were analyzed for their binding to CHOK1-hu5T4, HEK293-hu5T4 or MCF-7 cells by FACS. […] After wash by FACS buffer, PE conjugated-anti-human IgG antibody was added to each well and incubated at 4° C. for 30 minutes. MFI of PE was evaluated by MACSQuant Analyzer 16.

Test [19] has the same target. Put plainly: flow cytometry, CHOK1-hu5T4 cells. On the procedure: as §4
The source holds these as a separate data set.

Test [20] shares this target. Put plainly: flow cytometry, CHOK1-hu5T4 cells. On the procedure:
as §4
The source holds these as a separate data set.

The target is the same in test [21]. The test can be described thus: flow cytometry, HEK293-hu5T4 cells. The method, then:
as §4
The source holds these as a separate data set.

For test [22] the target is unchanged. Put plainly: flow cytometry, HEK293-hu5T4 cells. On the procedure:
as §4
The source holds these as a separate data set.

Test [23] deals with T1, human 5T4-His protein. Put plainly: SPR Biacore, Protein A capture. The source holds these as a separate data set.

Changes are numbered by the printed parent chain. Like-named read-outs stand apart in the source and are kept apart here.

One may read the EC50 (read off the curve) as the concentration needed to bring the measured effect to its halfway point. A lower EC50 (read off the curve) goes with an effect from little substance. For the molecule “naptumomab (antibody portion of naptumomab (NeoTX) that targets 5T4)”, the EC50 (read off the curve) in the test with human 5T4-His protein [1] stood at 0.2 nM; with human 5T4-His protein [2], 0.1 nM; in [3] it was 2 nM; in test [4] it was 1 nM; in [5], 2 nM. The IC50 (read off the curve) with human 5T4-His protein [6] came out at 3 nM; with human 5T4-His protein [7], 5 nM; in the test with human 5T4-His protein [8], 4 nM; in the test with human 5T4-His protein [9] it was 6 nM.

B1: 113H5 chimeric antibody (antibody, V domains shown)
VH: DVQLQESGPGLVKPSQSLSLTCSVTGYSITSGYYWNWIRQFPGNKLEWMGYINSDGSNNYNPSLKNRISITRDTSKNQFFLKLNSVTTEDTATYYCAREEYDYWFAYWGQGTLVTVSA
VL: DIVMTQSQKFMSTSVGDRVSVTCKASQNVGTNVAWYQQKPGQSPKALIYSASNRYSGVPDRFTGSGFGTDFTLTISNVQSEDLTEYFCQQYNSYPYTFGGGTNLEIK
notes: chimeric mAb
One may read the EC50 as the concentration needed to bring the measured effect to its halfway point. By Kd is commonly meant the constant that tells how readily two partners part at equilibrium. Low readings indicate a tighter complex, high ones a looser complex. As a reminder, the koff is the rate constant with which the complex falls apart. Low readings indicate slow dissociation, high ones fast dissociation. The term kon denotes the rate constant with which the complex forms. The low end stands for slow association, the high end for fast association. B1 returned an EC50 in the test with human 5T4-His protein [10] of 0.52 nM. The molecule further came in with an EC50 with cynomolgus 5T4 protein of 0.82 nM. In the test with human 5T4-His protein [11], this molecule returned a Kd of 0.552 nM, a koff of 0.000192 s⁻¹ and a kon of 348000 M⁻¹ s⁻¹. In the test with human 5T4-His protein [12], the “IC50 (read off the curve)” value is approximately 6 nM.

B2: Hu14G12-28 (antibody, V domains shown)
VH: QVQLVQSGAEVKKPGASVKVSCKASGYAFSSSWMNWVRQAPGQGLEWMGRIYREDGHTNYNGKFKGRVTMTADKSITTAYMELSRLRSDDTAVYYCANGGAMDYWGQGTLVTVSS
VL: DIQMTQSPSSLSASVGDRVTITCRASQDISNYLNWYQQKPGKAPKLLIYYTSRLHSGVPSRFSGSGSGTDYTFTISSLQPEDIATYFCQQDNTLPWTFGGGTKVEIK
notes: humanized; also called parental Hu14G12-28 antibody
In the test with human 5T4-His protein [13], B2 displayed an EC50 of 0.01 µg/mL. The Kd in the test with human 5T4-His protein [14] worked out at 2.42 nM; with human 5T4-His protein [15], 4.09 nM. In addition, the koff came out at 0.000714 s⁻¹ in the test with human 5T4-His protein [14] and 0.000738 s⁻¹ with human 5T4-His protein [15]. In addition, the kon with human 5T4-His protein [14] was determined as 295000 M⁻¹ s⁻¹; with human 5T4-His protein [15], 180000 M⁻¹ s⁻¹. The “EC50 (read off the curve)” value is approximately 0.2 nM with human 5T4-His protein [16]; approximately 0.1 nM with human 5T4-His protein [17]; approximately 0.2 nM in test [18]; approximately 2 nM in test [19]; approximately 1 nM in test [20]; approximately 2 nM in test [21]. Also, the “EC50 (read off the curve)” value in test [22] is approximately 2 nM.

B3: Hu14G12-28-88# (antibody, V domains shown)
VH: B2 VH
VL: B2 VL with Q89G, Q90N
In the case of B3, the “fold increase of binding affinity against the parental Hu14G12-28” value with human 5T4-His protein [23] was found to be 9.45 fold. In addition, in the test with human 5T4-His protein [15], binding was characterised by a dissociation constant (Kd) of 0.433 nM. The molecule also came in with a koff with human 5T4-His protein [15] of 8.28e-05 s⁻¹. This molecule registered a kon in the test with human 5T4-His protein [15] of 191000 M⁻¹ s⁻¹. Further, the “EC50 (read off the curve)” value with human 5T4-His protein [16] is approximately 0.2 nM; in test [18], approximately 0.3 nM; in test [19], approximately 2 nM; in [21] it was approximately 2 nM.

B4: Hu14G12-28-108# (antibody, V domains shown)
VH: B2 VH
VL: B2 VL with Q89A, Q90N
As to B4, the “fold increase of binding affinity against the parental Hu14G12-28” value with human 5T4-His protein [23] came out at 7.41 fold. Moreover, in the test with human 5T4-His protein [15], the Kd worked out at 0.552 nM. Moreover, in the test with human 5T4-His protein [15], the koff stood at 0.000101 s⁻¹. Besides, the kon with human 5T4-His protein [15] is 183000 M⁻¹ s⁻¹. The “EC50 (read off the curve)” value with human 5T4-His protein [17] is approximately 0.1 nM; in test [18], approximately 0.3 nM; in test [20], approximately 1 nM; in [22], approximately 2 nM.
